Data on two substances can be found in patent US20230340069A1.

For one assay, the target named is human IgG1. As to the kind of experiment: ELISA, IgG1 antibody coated on plate, detection with Strep-Tactin-HRP. (ELISA stands for enzyme-linked immunosorbent assay.)
Assay [1] has as its target Polyclonal human IgG Gammanorm (human). The experiment in a line: Fc binding protein coupled to Praesto Pure45 agarose beads; polyclonal human IgG Gammanorm (2.2 mg/ml) loaded; mass of hIgG injected at 10% breakthrough, 6 min residence time.

In the assay with human IgG1, Protein A domain Z yielded a Kd of 3.4 nM.

In assay [1], R PROTEIN A came in with a dynamic binding capacity of 37.4 mg/mL.

For orientation: Kd means a measure of binding affinity in units of concentration. Higher therefore signals lower affinity.
